The numbers were not newly measured in publication PMC5095918, which cites them from elsewhere.

Broadly, the Kd is the concentration at which binding is half-saturated.

The target of this series is FANCL RING (Homo sapiens) (UniProt Q9NW38).
Chain of UniProt Q9NW38 (Q9NW38 304-366): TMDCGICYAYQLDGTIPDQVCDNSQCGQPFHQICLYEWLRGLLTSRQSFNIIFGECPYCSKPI

As to UBE2T (from UniProt Q9NPD8), the Kd was 0.45 µM.
